Assay results taken from the RNAGym collection of RNA variant scans (doi:10.1073/pnas.2313332121).
Fewer inactive variants are shown than the library holds.

B1: TPR 5TU (parent)
chain: GGAUCUUCUCGAUCUAACAAAAAAGACAAAUCUGCCACAAAGCUUGAGAGCAUCUUCGGAUGCAGAGGCGGCAGCCUUCGGUGGCGCGAUAGCGCCAACGUUCUCAACUAUGACACGCAAAACGCGUGCUCCGUUGAAUGGAGUUUAUCAUG

Variants of: B1
Assay: polymerase ribozyme fitness, log enrichment relative to wild type (log ratio); higher = more active; in vitro selection for triplet polymerase activity
In short: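 Fitness is a logarithmic measure of how a genotype enriched relative to the wild type, with replicate averages weighted by inverse variance. The logarithm uses base 2, and enrichment came from Illumina sequencing of input and output libraries. Those libraries were PCR-built, transcribed mutants of each subunit of a heterodimeric triplet polymerase ribozyme, passed through one triplicate in vitro selection round that included frozen incubation at −7 °C, gel excision of extended constructs and streptavidin-bead capture. Genotypes were kept only if they had ≥10 input reads and ≥1 read per output.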

Row | Variant | polymerase ribozyme fitness (log ratio)
1 | A40C C85G C108G | ≤ -4.2
2 | A41C G84A | -0.601
3 | A41C C43A A91C C99U A113U | ≤ -4.2
4 | G42A G50A C57U G67C C79U G83U C93U | ≤ -4.2
5 | A41C C43U C125U | ≤ -4.2
6 | A39U U82A A106G | -1.88
7 | A40G U90A | ≤ -4.2
8 | A39G A40G A41U G58A G59U U61A C79A U144A G152C | ≤ -4.2
9 | A41U G65U G141C | ≤ -4.2
10 | A40C U56G A64U C87U G143U | ≤ -4.2
11 | A40U G88A | -3.65
12 | A39U A60U U146A | -3.58
13 | A40U G68C C79U G84A C96A A138C | ≤ -4.2
14 | A39U U102C | -4.01
15 | A39G U109C U144A | -3.59
16 | A41C C96U A107U C131A G133A U146C | ≤ -4.2
17 | A41U C57U C85U | -1.12
18 | A41G U56A C79U U82G C85U A122G C129A G136U | ≤ -4.2
19 | A40G A64U U134G A142C | ≤ -4.2
20 | A41U G80U U101C | -4.09
21 | G42A G88A G124A C125U C129A | ≤ -4.2
22 | A40C C51U G84A | -0.15
23 | A40C U55A A107G A142G | ≤ -4.2
24 | A41U G62C G136U | -3.69

Row | Variant | polymerase ribozyme fitness (log ratio)
25 | A40C C87U G117C | -0.313
26 | A41G G94C | 0.425
27 | A39G U55G G83C G88C G100C G140U G141A U145G | ≤ -4.2
28 | A40U A60U | -0.238
29 | A40U A60G | 0.828
30 | A40U G50U A60C A73G C85U U151G | ≤ -4.2
31 | A40C A41C A107U C108G G117C | ≤ -4.2
32 | A41C G48C U56A A89C C103U | -2.34
33 | A40G C54U C96U G141U | -2.2
34 | A40C U53A A110C | -4.04
35 | A39U A97U A119C | -3.36
36 | G42A C75G C96G | ≤ -4.2
37 | A39U A113C | -4.11
38 | A40C A52C | -1.04
39 | A41U G140A | -3.78
40 | A40G C99G | -3.79
41 | A40U G50C C57U U82A | -2.79
42 | A40U C63A C72A C76A C103G | ≤ -4.2
43 | A39G A47C | -1.49
44 | A41C G83U | -0.922
45 | A40G G80C U90G | ≤ -4.2
46 | A41U C54U C96A | -2.16
47 | A41U G92U | -1.05
48 | A39U G141U | -1.56

Row | Variant | polymerase ribozyme fitness (log ratio)
49 | A40C A52G G80U C114G G128U G133U | ≤ -4.2
50 | A41U G50A A52C C93U G100A A119C | ≤ -4.2
51 | A41C U53A G92U | -1.22
52 | A41G A47C G81C | -0.0928
53 | A41C C57U U82C G141A | -1.09
54 | G42A G92C | -3.91
55 | A41U C69U C87U | -2.75
56 | A41G C76U C93G A106G A122G C129A G141U | ≤ -4.2
57 | G42A G59A G74U C96G A137G | ≤ -4.2
58 | A41G U77G C85G C96U G124C | ≤ -4.2
59 | A41U C51A G86C G88C | ≤ -4.2
60 | A41U U44A G65C C85G G143U | ≤ -4.2
61 | A39G A41G A73G G86C G92U | ≤ -4.2
62 | A40C U45A A66U G83A G88U A97C A122U A138U | ≤ -4.2
63 | A41C U56A C87U U135G | ≤ -4.2
64 | A40U C57A G58C C79G | -3.81
65 | A39G A91G | -3.4
66 | A39U U53A C85A | ≤ -4.2
67 | A39U C63U C75G C76A C87G C105U C129U G143C | ≤ -4.2
68 | A39G G50A G81C U82C G92C G140A U151C G152C | ≤ -4.2
69 | A40C G126A G128U | -4.14
70 | A41U G117C | -0.836
71 | A39G A47G G83A A142G | ≤ -4.2
72 | A40U C105G | -0.905

Row | Variant | polymerase ribozyme fitness (log ratio)
73 | A40U C57U U61A U82G A98C A106U C116U A121U C132U A138C | ≤ -4.2
74 | G42C A47G G88C | ≤ -4.2
75 | A40C U77C C116A C125U | ≤ -4.2
76 | A41C U53A U135A | -1.07
77 | A40C U45A C54U | ≤ -4.2
78 | G42A A47C U55A C85U | ≤ -4.2
79 | A40C U56A G59A C87A A89C G112U A119U G143A | ≤ -4.2
80 | G42C A49U C63U | -4.12
81 | A41G G81C U82C | -0.145
82 | A40U G59C C132U U145G | -1.94
83 | A40C U90C | -4.09
84 | G42A G86A | -3.97
85 | A40C U44A U102C U139A A142G A147C U148A A150G | ≤ -4.2
86 | A39U A40U C54U G84C C85A G92C G128A | ≤ -4.2
87 | A41U G86U C125U U127G | -4.16
88 | A39G C85U U101C | -2.58
89 | A39U G83C | -2.01
90 | A39G A115C | -3.17
91 | A40U C95U | -1.07
92 | A39G G50C G65C A110G A120G | ≤ -4.2
93 | A41G C63U | 0.774
94 | A40U U55G G58A A97G | -0.0754
95 | A41C C132A | -2.55
96 | A40G G92U C108U G124A G128U | ≤ -4.2

Row | Variant | polymerase ribozyme fitness (log ratio)
97 | A39U U55A G59U G117A A121U | -1.11
98 | A40U G80A C87A U127G A147C | ≤ -4.2
99 | A39G C96U C116U | -1.75
100 | A41G U44G C75A G92A U102A U148C | ≤ -4.2
101 | G42A C96A A122G A138G U145G | ≤ -4.2
102 | A41C C57A C99G U104C G126C U144G | -3.09
103 | A41U G80A | -0.78
104 | A40C C93A G143A | -3.22
105 | A40C A49U A52U A60G G83U | ≤ -4.2
106 | G42A A64G U102G | ≤ -4.2
107 | A40C U55G C63U C93U | -0.65
108 | A41C G92U | -1.08
109 | A41C U102A | -1.07
110 | A40G C118U | -2.18
111 | A40U A89C | -0.129
112 | A40U G42A C63U C114U A119C G141U G143A | ≤ -4.2
113 | A40C A60U G70A C103A A107G | ≤ -4.2
114 | A40U A60G A89U U134C | -0.16
115 | A41G G42A G92C U111C A113U C125G | ≤ -4.2
116 | A39U G62A | -2.58
117 | A40G C54A G68A G92A | ≤ -4.2
118 | A40U C95U G124C G133U | ≤ -4.2
119 | A41U C85U C99A C105A C118G A119C | ≤ -4.2
120 | A40U U55C U78G U151A | ≤ -4.2

Row | Variant | polymerase ribozyme fitness (log ratio)
121 | A39U U61G C85U C93U U134A | ≤ -4.2
122 | A40U C87U C105U G136U | -2.13
123 | G42A C114G G133U A150C | ≤ -4.2
124 | G42A A142C | -4.17
125 | A40C A47C A60C G71U A91C C93U | ≤ -4.2
126 | G42A A52G G70C G141C | ≤ -4.2
127 | A39G A41G G46C C51G U56A A60C C72U A97G U111C C125A | ≤ -4.2
128 | A40C C85G | -1.95
129 | A40U C114U A121C | -2.44
130 | G42C A49C | ≤ -4.2
131 | A40G C93U C99U | -4.16
132 | A40U G140U | -3.81
133 | A40U C43U G70A U78G C87A A147G | ≤ -4.2
134 | A41C A73G U145C | -1.73
135 | A40U G92A A98U U145G A147U | -4.09
136 | A41C C85U | -1.29
137 | A39U C54U C87A C99A G133U | ≤ -4.2
138 | A39U U53A | -2.91
139 | A41G A89G G92U G100A G117C G133A G143U | ≤ -4.2
140 | A39U U77A G81C C87U C95U A98C G126U G136C | ≤ -4.2
141 | A41C C87G C114U | ≤ -4.2
142 | G42A G50A A66U G88A C96G U139C | ≤ -4.2
143 | G42A G94U | ≤ -4.2
144 | A40U G92A A119C A120C U148G | ≤ -4.2

Row | Variant | polymerase ribozyme fitness (log ratio)
145 | A41U G71A G83C G84U U145C A147U | ≤ -4.2
146 | A39U C103G | -4.14
147 | A41G C76U G84U C85A A97U G100A G140U | ≤ -4.2
148 | G42A G48U G58U C75G G83A U104G | ≤ -4.2
149 | A41G C75U C93G | -2.6
150 | A40U U56A C75G | -3.97
151 | A41G U104G C105U A122C | -1.26
152 | A39G C87U | -2.33
153 | A41U G68U C93U A106G | ≤ -4.2
154 | A40C C85G A106G G117C | -1.29
155 | A39G G83A G117U A120C G152U | -4.11
156 | A40U A60G A66U A73G A91G C99G | ≤ -4.2
157 | A41G C96A C149U | -0.509
158 | A40U C95U G143U | ≤ -4.2
159 | A40C G50U C69G C116U | -3.24
160 | A40C C85G C87U C93U U148C | ≤ -4.2
161 | A40C U109C C116U C131U A147U | -2.36
162 | G42A C51U A64C G80A U127A | ≤ -4.2
163 | A40G | -1.51
164 | A40C | 0.603
165 | A40U | 0.097
166 | A41C U56A C57A A115U C116U | -2.62
167 | A40G A41U | -2.41
